Measured values reported in patent US20130236459A1 (MERRIMACK PHARMACEUTICALS, published 2013).
Read-outs that look alike come from different tables or passages of the source. Each block holds one binder with its values, some of them ahead of it.

Experiments:
[1] = target: T1, IGF-1R (receptor for insulin-like growth factor 1), endogenous on human tumor cell lines (human, UniProt P08069 31-1367); experiment: summary sentence of Example 3 (FACS on cells)
T1 construct: whole, on cells; Target of the anti-IGF-1R arm in cell assays
T1 sequence (P08069 31-1367): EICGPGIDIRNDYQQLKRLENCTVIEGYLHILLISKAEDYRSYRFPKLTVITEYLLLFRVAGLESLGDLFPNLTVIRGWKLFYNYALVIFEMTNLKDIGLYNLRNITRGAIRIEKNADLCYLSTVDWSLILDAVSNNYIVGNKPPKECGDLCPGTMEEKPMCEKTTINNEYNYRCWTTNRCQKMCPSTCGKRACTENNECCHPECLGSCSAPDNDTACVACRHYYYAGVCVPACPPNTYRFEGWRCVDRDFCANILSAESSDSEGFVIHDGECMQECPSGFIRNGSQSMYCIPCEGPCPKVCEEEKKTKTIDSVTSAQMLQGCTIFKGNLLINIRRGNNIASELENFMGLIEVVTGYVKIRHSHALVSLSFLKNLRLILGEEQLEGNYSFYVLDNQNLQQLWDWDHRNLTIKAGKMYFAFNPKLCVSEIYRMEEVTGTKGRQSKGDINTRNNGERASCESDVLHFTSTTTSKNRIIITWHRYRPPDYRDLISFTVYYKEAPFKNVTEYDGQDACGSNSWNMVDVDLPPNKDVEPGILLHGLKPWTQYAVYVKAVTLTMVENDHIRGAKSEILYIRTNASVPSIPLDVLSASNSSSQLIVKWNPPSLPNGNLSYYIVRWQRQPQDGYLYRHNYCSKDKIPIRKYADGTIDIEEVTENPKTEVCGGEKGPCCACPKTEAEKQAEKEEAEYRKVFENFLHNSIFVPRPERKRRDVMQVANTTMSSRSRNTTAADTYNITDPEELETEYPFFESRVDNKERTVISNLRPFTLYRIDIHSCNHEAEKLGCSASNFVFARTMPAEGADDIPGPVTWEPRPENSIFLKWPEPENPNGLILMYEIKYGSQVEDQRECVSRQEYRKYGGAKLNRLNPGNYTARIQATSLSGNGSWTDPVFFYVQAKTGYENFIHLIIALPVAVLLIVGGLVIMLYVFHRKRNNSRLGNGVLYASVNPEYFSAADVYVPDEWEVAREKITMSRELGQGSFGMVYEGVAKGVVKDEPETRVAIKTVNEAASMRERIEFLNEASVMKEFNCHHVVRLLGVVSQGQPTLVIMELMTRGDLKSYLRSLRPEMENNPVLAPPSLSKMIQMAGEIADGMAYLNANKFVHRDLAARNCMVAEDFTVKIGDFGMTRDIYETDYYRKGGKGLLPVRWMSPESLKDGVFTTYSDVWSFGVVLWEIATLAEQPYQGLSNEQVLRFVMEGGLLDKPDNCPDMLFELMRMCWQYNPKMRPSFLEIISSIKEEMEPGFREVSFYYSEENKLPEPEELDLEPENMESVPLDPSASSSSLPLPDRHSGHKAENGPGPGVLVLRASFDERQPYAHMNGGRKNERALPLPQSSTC
Procedure: (§1) 1×10⁵ MCF7 cells or 1×10⁵ ADRr cells are incubated at room temperature for 2 hours with each of ELI-7, ILE-10 and ILE-12, two anti-ErB3 antibodies and one anti-IGF-1R antibody at 2 uM, followed by 12 subsequent 3-fold dilutions. Then using goat anti-HSA-Alexa647 conjugated antibody as the detection antibody, cells are incubated on ice for 40 minutes. Cell binding dissociation constants (measures of binding affinities) of the antibodies on MCF7 and ADRr cells are assessed by FACS and apparent dissociation constants are determined for each protein. The following results were obtained (see also FIGS. 14A and 14B): […]

[2] = target: T2, ErbB3 (HER3), endogenous on human tumor cell lines (human, UniProt P21860 20-1342); experiment: summary sentence of Example 3 (FACS on cells)
T2 construct: Target of the anti-ErbB3 arm in cell assays
T2 sequence (P21860 20-1342 limits assumed): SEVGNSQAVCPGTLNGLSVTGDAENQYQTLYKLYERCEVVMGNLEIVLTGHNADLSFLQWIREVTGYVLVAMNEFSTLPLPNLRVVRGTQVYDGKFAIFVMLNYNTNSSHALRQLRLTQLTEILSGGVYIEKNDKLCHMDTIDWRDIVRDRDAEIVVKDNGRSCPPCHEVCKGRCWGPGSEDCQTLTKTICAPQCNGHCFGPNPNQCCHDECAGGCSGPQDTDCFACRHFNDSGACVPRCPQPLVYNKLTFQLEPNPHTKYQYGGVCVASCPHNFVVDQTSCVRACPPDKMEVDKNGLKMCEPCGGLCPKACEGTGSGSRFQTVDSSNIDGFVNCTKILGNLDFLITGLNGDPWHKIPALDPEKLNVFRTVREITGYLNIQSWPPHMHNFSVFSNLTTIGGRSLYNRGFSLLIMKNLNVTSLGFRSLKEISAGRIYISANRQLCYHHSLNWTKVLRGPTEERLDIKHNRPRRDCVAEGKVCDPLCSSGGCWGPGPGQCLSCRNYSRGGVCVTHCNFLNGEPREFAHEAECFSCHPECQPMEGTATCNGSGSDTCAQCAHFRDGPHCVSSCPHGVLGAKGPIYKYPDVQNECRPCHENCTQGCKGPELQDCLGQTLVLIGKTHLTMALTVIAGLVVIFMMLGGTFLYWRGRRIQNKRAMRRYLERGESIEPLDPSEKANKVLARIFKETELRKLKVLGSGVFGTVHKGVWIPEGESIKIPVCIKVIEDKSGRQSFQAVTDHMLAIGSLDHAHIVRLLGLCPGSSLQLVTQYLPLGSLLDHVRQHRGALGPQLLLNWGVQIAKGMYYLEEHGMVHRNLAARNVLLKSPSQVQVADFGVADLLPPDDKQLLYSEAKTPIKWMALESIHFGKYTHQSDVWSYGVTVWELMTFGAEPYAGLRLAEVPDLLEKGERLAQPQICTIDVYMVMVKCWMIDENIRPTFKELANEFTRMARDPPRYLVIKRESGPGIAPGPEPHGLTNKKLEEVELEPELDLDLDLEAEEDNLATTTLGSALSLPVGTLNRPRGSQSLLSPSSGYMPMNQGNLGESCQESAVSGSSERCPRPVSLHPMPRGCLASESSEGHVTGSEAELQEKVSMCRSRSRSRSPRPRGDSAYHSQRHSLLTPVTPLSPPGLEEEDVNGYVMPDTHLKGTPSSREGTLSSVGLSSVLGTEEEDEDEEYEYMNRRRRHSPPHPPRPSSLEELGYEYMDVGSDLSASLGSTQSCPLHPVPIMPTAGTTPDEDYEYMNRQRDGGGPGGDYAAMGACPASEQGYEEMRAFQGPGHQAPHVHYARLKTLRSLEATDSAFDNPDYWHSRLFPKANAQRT
Procedure: as §1

[3] = target: T1, IGF-1R (receptor for insulin-like …); experiment: cell-based or functional assay
[4] = target: T1, IGF-1R (receptor for insulin-like …); experiment: cell-based or functional assay; remark: listed apart in the source
[5] = target: T1, IGF-1R (receptor for insulin-like …); experiment: cell-based or functional assay; remark: listed apart in the source
[6] = target: T1, IGF-1R (receptor for insulin-like …); experiment: cell-based or functional assay; remark: listed apart in the source
[7] = target: T1, IGF-1R (receptor for insulin-like …); experiment: cell-based or functional assay; remark: listed apart in the source

binding result [1]: binds | binding result [2]: binds
B1: ILE-10 (bispecific antibody, human IgG2, kappa)
heavy: EVQLLESGGGLVQPGGSLRLSCAASGFTFSVYPMHWVRQAPGKGLEWVSSISSSGGATRYADSVKGRFTISRDNSKNTLYLQMNSLRAEDTAVYYCAKDFYDILTGNAFDIWGQGTMVTVSSASTKGPSVFPLAPCSRSTSESTAALGCLVKDYFPEPVTVSWNSGALTSGVHTFPAVLQSSGLYSLSSVVTVPSSNFGTQTYTCNVDHKPSNTKVDKTVERKCCVECPPCPAPPVAGPSVFLFPPKPKDTLMISRTPEVTCVVVDVSHEDPEVQFNWYVDGVEVHNAKTKPREEQFNSTFRVVSVLTVVHQDWLNGKEYKCKVSNKGLPAPIEKTISKTKGQPREPQVYTLPPSREEMTKNQVSLTCLVKGFYPSDIAVEWESNGQPENNYKTTPPMLDSDGSFFLYSKLTVDKSRWQQGNVFSCSVMHEALHNHYTQKSLSLSPGKGGGGSGGGGSGGGGSLQEVQLLESGGGLVQPGGSLRLSCAASGFTFSAYNMRWVRQAPGKGLEWVSVIYPSGGATRYADSVKGRFTISRDNSKNTLYLQMNSLRAEDTAVYYCARGYYYYGMDVWGQGTLVTVSSASTGGGGSGGGGSGGGGSQSVLTQPPSASGTPGQRVTISCSGSDSNIGRNYIYWYQQFPGTAPKLLIYRNNQRPSGVPDRISGSKSGTSASLAISGLRSEDEAEYHCGTWDDSLSGPVFGGGTKLTVLS
light: DIQMTQSPSSFSASTGDRVTITCRASQGISSYLAWYQQKPGKAPKLLIYAASTLQSGVPSRFSGSGSGTDFTLTISSLQPEDSATYYCQQYFTFPLTFGGGTKVEIKRTVAAPSVFIFPPSDEQLKSGTASVVCLLNNFYPREAKVQWKVDNALQSGNSQESVTEQDSKDSTYSLSSTLTLSKADYEKHKVYACEVTHQGLSSPVTKSFNRGEC
notes: anti-IGF-1R/anti-ErbB3 IgG2-(scFv)2: anti-IGF-1R IgG2 (module 5-7), anti-ErbB3 scFv (module 2-3); also called 14F; 14f

binding result [1]: binds | binding result [2]: binds
B2: ILE-12 (bispecific antibody, human IgG2, kappa)
heavy: EVQLLESGGGLVQPGGSLRLSCAASGFTFSVYPMHWVRQAPGKGLEWVSSISSSGGATRYADSVKGRFTISRDNSKNTLYLQMNSLRAEDTAVYYCAKDFYDILTGNAFDIWGQGTMVTVSSASTKGPSVFPLAPCSRSTSESTAALGCLVKDYFPEPVTVSWNSGALTSGVHTFPAVLQSSGLYSLSSVVTVPSSNFGTQTYTCNVDHKPSNTKVDKTVERKCCVECPPCPAPPVAGPSVFLFPPKPKDTLMISRTPEVTCVVVDVSHEDPEVQFNWYVDGVEVHNAKTKPREEQFNSTFRVVSVLTVVHQDWLNGKEYKCKVSNKGLPAPIEKTISKTKGQPREPQVYTLPPSREEMTKNQVSLTCLVKGFYPSDIAVEWESNGQPENNYKTTPPMLDSDGSFFLYSKLTVDKSRWQQGNVFSCSVMHEALHNHYTQKSLSLSPGKGGGGSGGGGSGGGGSLQEVQLLESGGGLVQPGGSLRLSCAASGFTFSVYDMYWVRQAPGKGLEWVSYIYSSGGDTDYADSVKGRFTISRDNSKNTLYLQMNSLRAEDTATYYCARASTNSIYDAMDVWGQGTTVTVSSASTGGGGSGGGGSGGGGSDIQMTQSPSSVSASVGDRVTITCRASQDITNWLAWYQQKPGKAPTLLIYDASTLQSGVPSRFSGSGSGTDFTLTISSLQPEDFATYFCQQANGFPLTFGGGTKVEIK
light: B1 light
notes: anti-IGF-1R/anti-ErbB3 IgG2-(scFv)2: anti-IGF-1R IgG2 (module 5-7), anti-ErbB3 scFv (module 2-21)

pAKT IC50 (BxPC-3) [3]: 2.6e-10 M (inferred) | pIGF-1R IC50 (BxPC-3) [3]: 1.5e-10 M (inferred) | pAKT IC50 (BxPC-3) [4]: 8e-11 M (inferred) | pIGF1R IC50 (BxPC-3) [4]: 1.6e-09 M (inferred) | pAKT IC50 (BxPC-3 50% ErbB3 KD) [5]: 1.3e-07 M | pAKT IC50 (BxPC-3 50% IGF1R KD) [5]: 4e-08 M | pAKT IC50 (BxPC-3 Vector Control) [5]: 2.1e-08 M | pAKT IC50 (BxPC-3, IGF1 40 ng/ml) [6]: 7.4e-09 M | pAKT IC50 (BxPC-3, IGF1 400 ng/ml) [6]: 9.1e-09 M | pIGF1R IC50 (BxPC-3, IGF1 40 ng/ml) [6]: 7.8e-10 M | pIGF1R IC50 (BxPC-3, IGF1 400 ng/ml) [6]: 2.5e-10 M | % IGF1R Downregulation (A549, 24 h) [7]: 57% | % IGF1R Downregulation (BxPC-3, 24 h) [7]: 51%
B3: ANTI-IGF-1R Ab# A (ganitumab) (antibody, V domains shown)
VH: QVQLQESGPGLVKPSGTLSLTCAVSGGSISSSNWWSWVRQPPGKGLEWIGEIYHSGSTNYNPSLKSRVTISVDKSKNQFSLKLSSVTAADTAVYYCARWTGRTDAFDIWGQGTMVTVSS
VL: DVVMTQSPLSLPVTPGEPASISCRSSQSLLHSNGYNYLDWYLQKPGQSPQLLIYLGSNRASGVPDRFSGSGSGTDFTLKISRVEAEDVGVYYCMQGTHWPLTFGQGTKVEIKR
